This passage reports activity results from patent US5516678.

In this series the test system is SspI restriction endonuclease (native) (Sphaerotilus sp. ATCC 13925). Briefly: cleavage_in_vitro. To be noted: Mono S fractions, homogeneous; lambda DNA assay stated in D-7.

Consider phage lambda DNA, for which the activity was 140000 units/mg.
